Laboratory results published in a protein production outcome set (Wang et al. 2014).

Experiment: label from the status in PepcDB records
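Also: failed if final PepcDB status was selected cloned or expressed and not failed if soluble or beyond.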

Sequence | protein production
MRSSQGSGADPGARGRVDQRLRRGARPAPTSPHSPAKTNHPLRAAIIGGGPGGLYTAALLKRLAPDREVTVYERNAPDDTFGFGVVLSDETLGGIEHADPTVYEALKAHFVRWDDIDIVHRHTRHTSGGHRFAALGRRRLLEILHDRCRDLGVELRFRTEAPPPDRLARTHDLVVAADGVHSATREAYRDVFRPRLTPHRCRYIWLAADFAFDAFRFEIAETEHGVMQLHGYPFAPDASTVIVEMREEVWRAAGFDELDETESTARCAKIFADALGGRPLRSNKSAWTTFRTVVNERWSHGNIVLLGDAAHTAHFSIGSGTKLAVEDALALAACLAERPTLQEALTAYEEERRPVVASTQRAAKASLEWFEDLDRYLAQPPRQFAFNLLTRSRRVTHENLRLRDAGFTESVEREFGCPPDTPPMFTPFRLRGLTLRNRVVVSPMDMYSATDGVPGDFHLVHLGARALGGAALVMTEMVCVSAEGRITPGCAGLYTGRQGEAWRRITDFVHDGAPGTAIGVQLGHSGRKGSTRLMWEGMDEPLPDGNWPLVAPSPLPYRPGGQVPRELSRAQLADVREQFRAAAERAAGAGFDLLELHCAHGYLLSGFLSPLTNHRTDAYGGSPENRLRFPLEVFDAVREVWPDERPMTVRISATDWAEGGTSAEEAVEIARAFAAHGADAIDVSTGQVVSGERPEFGRSYQTPYADRIRHEAGVPVIAVGAISSWDDVNSLVLAGRTDLCALARPHLYDPHWTLHAAAEQGYDGPGARWPAPYRAGSRPPRTGRTDAPRPRLTLHGPGQDG | failed
MFFKQFYDKHLSQASYLIGCQKTGEAMIIDPIRDLSSYIRVADEEGLTITHAAETHIHADFASGIRDVAIKLNANIYVSGESDDTLGYKNMPNHTHFVQHNDDIYVGNIKLKVLHTPGHTPESISFLLTDEGAGAQVPMGLFSGDFIFVGDIGRPDLLEKAVKVEGSSEIGAKQMFKSIESIKDLPDYIQIWPGHGAGSPCGKSLGAIPTSTLGYEKQTNWAFSENNEATFIDKLISDQPAPPHHFAQMKKINQFGMNLYQPYTVYPATNTNRLTFDLRSKEAYHGGHIEGTINIPYDKNFINQIGWYLNYDQEINLIGDYHLVSKATHTLQLIGYDDIAGYQLPQSKIQTRSIHSEDITGNESHILDVRNDNEWNNGHLSQAVHVPHGKLLETDLPFNKNDVIYVHCQSGIRSSIAIGILEHKGYHNIINVNEGYKDIQLS | not failed
MAAKLCIPSSSFSHRTNDSITSSSSSYSSLLALPQFFCPPSPLGFPQFKLHAKLGGGDGEVKPKDKKKFITKDEEPEQYWQSVGEREGENPMKTPLPYIIIFGMSTPFVILAIAFANGWIKVPIR | failed
MTDFPTSLTAPKKGCEGCTGSPELGFSFDYAYQPIVNLHDQSIFAHEALVRGPNGEGAMSVLNQVTDQNRYRFDQKCRTTAIAGAAKLGMTERLSINFLPNAVYRPELCIRSTLEAAKQHDFPIERLIFETIESEHVDNNNHLSNILREYREFGFMTAIDDFGAGYSGLTLLADFQPDLIKLDMNLVRDIHRDRARQAIVRGVVTMCKDLGIKLIAEGIEHIEERDFLADCGISLMQGYLFAKPAFKALAQIAPEAWQKP | not failed
MPREFKSFGSTEKSLLSKGHGEPSYSEIYAEPENFLEIEVHNPKTHIPNGMDSKGMFTDYEIICRTNLPSFHKRVSKVRRRYSDFEFFRKCLIKEISMLNHPKVMVPHLPGKILLSNRFSNEVIEERRQGLNTWMQSVAGHPLLQSGSKVLVRFIEAEKFVG | not failed
MDKRLQQDRIVDKMERFLSTANEEEKDVLSSIVDGLLAKQERRYATYLASLTQIESQEREDGRFEVRLPIGPLVNNPLNMVHGGITATLLDTAMGQMVNRQLPDGQSAVTSELNIHYVKPGMGTYLRAVASIVHQGKQRIVVEGKVYTDQGETVAMGTGSFFVLRSRGLEHHHHHH | not failed
DDSLGEAVTTRAEALTIPAVLRARNLLSTTVARTPLVCDGTLPPFVPVAAPPGAATMQTPFHRMLATADDLLFNGVACWALDRDESGTCIGAIHIPLDTWQIEENTVRVNGKAVDPMEVCIFVGIHGGLLTHASETFTDARNLVRAAARVAQNPAALIELRQTNNAQLSPDDVDRIINGYVAARRGRNSGVGFSSSGLEVHEHEMAKENLLIEGRNAAAVDVARAMNVPAAFIDATVGGTSLSYQNAASRMIELVTFGVEPLMSAIEARLNQPDMHADHLANPLKFDPAALLDAIPTTPTIG | not failed
MPTINQLIRYGRKPKKKKSKAPALQGNPQKRGVCIKVSTMTPKKPNSALRKIARVRLSNGIEVTAYIPGIGHNLQEHSVVLVRGGRVKDLPGVRYKIIRGALDAAGVEGRRQSRSKYGAKRPKDQKK | failed
MTNKAIKATNEELQQVYNDIPKAYDRANRFISFNQDVKWRADLVKTILKYCKRPKLILDVASGKGELSYTFKKIYKDNSNYEIILSDYAENMLKMALIKDDKVLCSFDALPFREKTFDIVMSSFALHASDNIEDVIREITRVSRKIVGFIAMGKPDSWVRRIYLSIYLKYIMPYIAVLGGAKARDFKYIYYIYERVPTNSQHKRIFEKYIDIKVYEERALNLFYFVVGFPKE | failed
MTTCAPAVPAQLDVAGDLLALLRDTTTEPRPDIQLEALTLAVAADLPVLLWGEPGIGKTAALTQLATALDLPLTTVIASVHEPSDFSGLPVVGDDPAEQGVPMAPPDWAVRLVRAGRGLLFLDELSTAPPAVQAALLRLVLERRIGALRLPPGVRIVAAANPRSSAADGWELSPPLANRFVHLQWTHDQDVVVRGLGGTWPRAALPSLDPGGLDGAVRYARRAVCAFLTARPGLVHRLPSGETRRGGAWPSPRSWEMTLCLIAFATAAGSSREVLSLLVRGTVGDGPGLELMASLDRMDLPDPETLLADPAGAVLPERGDLRQAVLDGVVAAVRKRPEKSRWDSAWALLARAMETGAPDVVVVPATTLATLRQQDWDIPASIERLAGAMSLSRRADRAADRAAARLAGTARTSGLEHHHHHH | failed
HGTGKQTNALADYWTSEFVNSVRQGIPVPNNYTVINCDFDQYMWEEAAAGCLATQLNSFIQAKNIDDLILLTHSNGGNVVRWILSNPTWDSRYPAVINATSKVIALAPSSGGTPLADAVNQGNVFETTLGWLLGYGSNAVKQQQVGWMAHYNNTWLFGTAGRPRLGKPFEVVVGSDVDSAIWDSDSYCAGYQYQVALETTQNWLDSCSDGFLNCSSQKAAGTVWFTDKQKTRGQEPLSHQQSRRACFNLDTL | failed
MTVIDDRDMMGAESSELSEAGARDYFELLKPRVMSLVVFTAFAGLVLAPGEINPILGLIAILCIAVGAGASGALNMWYDADIDAVMTRTAKRPIPSGRIAPREALAFGLTLSAFSVVILGLAVNWFSAGLLAFTIFFYAVVYTMWLKRSTPQNIVIGGAAGAFPPMLGWACVTGGVSLDSVILFLIIFLWTPAHFWALALFKMRDYGAVGIPMMPNVAGERSTKNQMIVYAVLTAAAAVAPFFTGLASAGYGIFAAVLSAIFVYCSFDVRRMPEGDEKMLPAKKMFAYSVLYLFAIFSGLLADHFAPALKAVISGVL | failed
MRILLVLAHPLEDSFAAAVARTAREALEASGHVVDLFDLYAENFDPRLSKAERGGYFDQPYDTSAVADIVARLKAADGLILVFPQWWFNFPAILKGFFDRVFAPGVAFSHDAAGGRIVPQLTHIRLLYALTTTGSPWWLVRLYMGDPVRRLLKRGIAAFCSKGLNFRMLSLHDMDRASDVKRRAHLDRVRKLLSAIR | failed
MNNDISIAALIVTYNPDKRLIESLTKLEKLVDFVVIVDNNSNKSPVLDYISNNIFNDRYLIQLEDNLGIAYALNTGIKYILEKGHYDYILTLDQDTVPLIDDIKELIKRANSIYSNIGIIALISKMDPKIPEFTDVKFPMTSGNIVKSEIFKYIKYREEFFIDSVDFDFDYNVRMHGYRIIQYNYRAIDHNVGITKNGFPYESSERLYYIIRNSTVLFGENKITFRMYIFQAFYWITMGLIHWEILKTAKSSVKGFKDGVNKKLGKNNDI | failed
MWALLLRFYIALPLSVIVLLVLKTSFPTHKQALHSYFAGSFSLIGSQIFTYAATQYLSSGMIALMFGLAPIMAGLIGRFAFGQHLFKLQWLGMAVAVCGLAIICLNGSNQHVHPFGIVLMLVSVFVYSFSIFWVKKVNAKIQPMAQATGSILVSSILASCLIPFIWQYAPTHLPQAKSLFALIYTVLMASLVAMFCYFKLVQNIKPTTLSLTTVITPMLAMIIGAVLNHEQLSIMVFVGAFIILFGLFLYFYKDIQANRNFAQHIKSK | failed
MEELFCIGCGARIQTENKDAAGYTPRAALEKGLETGELYCQRCFRLRHYNEITDVHITDDEFLKLLHEVGDSDALVVNVIDIFDFNGSIIPGLSRFVAGNDVLLVGNKKDILPKSVKDGKVTQWLTERAHEEGLRPVDVILTSAQNHHAIKDLIDTIEKYRHGQDVYVVGVTNVGKSTLINAIIREITGSRDVITTSRFPGTTLDKIEIPLDDGSYIFDTPGIIHRHQMAHYLTAKNLKYVSPKKEIKPKTYQLNSEQTLFLAGLARFDFISGQKQGFTAYFDNNLNLHRTKLVGADEFYTKHVGKLLTPPTGKEVSDFPKLVRHEFTIKDKMDIVYSGLGWIRVKSEAENPVVVAAWAPEGVAVVLRKALI | failed
NVVLRILAWLLAVGLVVLPVVAVLNGWVGAERWPLAKLRVSGDFKRVSAEELRAVVLPYVRSGFFAVRLPQVQDAVERLPWVERAHVSKRWPDVLEVSVVEHQPFARWGSDRMLSEQGRLFPVPGGLKNLKLPQLGGPDMKVRDVVALYKASSALFASTGLDVSWLQMDARGSWSLGLSNGLQIFVGRDDARARLERFARVLPQLLDPQRPVVRADLRYTN | failed
YLIKFDRIAVPMAEGRSSRRVLHIAFAFASAMGSEITAITVRDQAKDITWTNKITVVTNAYKEGLSQNIKVVPKILTSSDVKSALVEELNRHSYDIVIIASEKRSIITRITSGPVSNYVIKKSNIPTALV | failed
REITLDDAALLQRFFVENPEYFHIVHGAAPQPDEARDEIDDALPAGWSYTHKWKIGYFDSEGRLLAFVSIVTDLLAQGVWHIGLFMLATPCHGSSLARQLHAELEAWAAGEGARWLRLSVVQDNARAQGFWNACGYAQVRTRDGIELGRLQHQVRIMIKPL | failed
MSKICQITGKKAMVGNNVSHSKRRTKRVFDVNLFRKKFYWVEQDCWVVLRISAAGLRLINKIGLDAAIKRAAEKGFLNALEHHHHHH | not failed
MIEMLGIKIPLRKTTILPVLSFTLSSYFLTNFIFYLQYTDYTGLVEFLLIGAPFIGRAITPITYPFLMSRINIERITYLSLGNMAILDILEFFMGTDTLALILLRVATGILFGLATSAAVELATQSRSKIIMGMTMGGWALGWILSALMSFLMGKMVLITSSFSLVFFLLIKRSNIDKKLFSNSGSISIAFSWKALLIFLLGFEPAYILQLIPSLLGENNAIEETIIAYSISFIAYIILPSIGNIRISSLLTSLMIGILGFTSFITLKAWMFIPFTVLGLGLNSLLPIIIKLMKVEVTKIGPSMNLASLSGFLIPSLVSIGDIEINSAILTLISSISLGAIVYKNLKITA | failed
MCYTGDMEDVKHPRLTRRGRIYWFRAKVPADLRSHYAPKTEIIYSLKTSDPREALVRVRIASVKADQEFEVARRIPKEEVRTSLSDDEAERLVAIYYQVRLEEDEEIRIGGKQEADLYLGVKAQLEALGIGHANYTNEEAVAEYGLSQREYQKNQETLEFMEPLYREALSTGNTEIIHDELDDILEANSIKLDRTSSQYRKLAFSILKATVKVLDVEKRRNSGEPIDTPPEPPPLFKPAVTAVPANSLRLSEVFERWKVERKPAKRSLMEWDTAIRRFTALYGDKPVESITKAEVVEFKDSLLQQGKAAATVLKQVGAIKSTLQYAVDNGKLSVNPATGVKVAGKRASEVRRLPYDAEDLKAIFSSPVFTCGDRPLAGSGEASFWLPLLALFTGARLNEIGQILVSDVRELDGIHYLDLNTEGEGKSLKNEGSRRKVPLHPEIIRLGFLDYVRKQGESLGSDSRVFDKLEPNSNGVLTANFSKWWGRYARENGIAKGQKVFHSFRHSFKDACRESSLPQDIHDALTGHSPNNVGGRYGQGFTVRRLGEEMAKLSYPGLDLSGLMKP | failed
